Test results published in PMC3765442 (PLoS ONE, 2013).

What was measured:
[1] = biological target: the molecule itself; test: AUC; fluorescence sedimentation velocity (GFP signal at 488 nm), 22°C; dilution series from about 500 to about 0.5 nM (monomer equivalents); 20 mM Tris-HCl pH 7.5, 300 mM NaCl, 0.2 mg/ml BSA, 2 mM DTT or 0.1 mM TCEP; samples incubated 16 hours at 22°C; dimer to monomers; apparent Kd
[2] = biological target: the molecule itself; test: SEC-MALS; Superdex 200 10/30 with in-line multi-angle light scattering; 1 to 4 mg/ml injected in 100 µl (about 1 µM at the peak); 20 mM Tris-HCl pH 7.5, 300 mM NaCl, 2 mM DTT; room temperature; single experiments
[3] = biological target: the molecule itself; test: AUC; absorption sedimentation equilibrium at 37°C; 1 to 60 µM (monomer equivalents); 14'000, 17'000 and 26'000 rpm; buffer as for velocity runs but without BSA; dimer to monomers

B1: EB3c-GFP (C-terminal domain of human EB3, Ala200-Tyr281, C-terminally EGFP-His-tagged) (domain or fragment, UniProt Q9UPY8 200-281, looked up)
chain: AQILELNQQLVDLKLTVDGLEKERDFYFSKLRDIELICQEHESENSPVISGIIGILYATEEGFAPPEDDEIEEHQQEDQDEY
notes: Calculated monomer mass 38.7 kDa; also called C-terminal domain of EB3; not shown: EGFP, C-terminal, kept
Kd [1]: 2 nM | stoichiometry N [2]: 2

B2: EB1c-GFP (C-terminal domain of human EB1, Asp191-Tyr268, C-terminally EGFP-His-tagged) (domain or fragment, UniProt Q15691 191-268, looked up)
chain: DEAAELMQQVNVLKLTVEDLEKERDFYFGKLRNIELICQENEGENDPVLQRIVDILYATDEGFVIPDEGGPQEEQEEY
notes: Calculated monomer mass 38.3 kDa; also called C-terminal domain of EB1; not shown: EGFP, C-terminal, kept
stoichiometry N [3]: 2

B3: EB1c-GFP[A206K] (domain or fragment, human, UniProt Q15691 191-268, looked up)
chain: DEAAELMQQVNVLKLTVEDLEKERDFYFGKLRNIELICQENEGENDPVLQRIVDILYATDEGFVIPDEGGPQEEQEEY
notes: As m3, but Ala206 of the EGFP tag is mutated to lysine; the EB1c part is unchanged; not shown: EGFP with A206K, C-terminal, kept
stoichiometry N [1]: 2
